Measurements published in publication PMC3024946, “Hydroxyproline-containing collagen analogs trigger the release and activation of collagen-sequestered proMMP-2 by competition with prodomain-derived peptide P_(33-42)” (Fibrogenesis & Tissue Repair, 2011).

B1: actMMP-9 (86-kDa trypsin-activated form of matrix metalloproteinase-9) (enzyme)
chain: not shown
modifications: [125I]-Bolton-Hunter label in the solid-phase assays (dot blot, microwells); no label told for SPR and immunohistochemistry
notes: also called [125I]-actMMP-9; MMP-9 Act; source: bought: Invitek
B2: proMMP-9 (92-kDa latent proform of matrix metalloproteinase-9) (enzyme, human, UniProt P14780 20-707, looked up)
chain: APRQRQSTLVLFPGDLRTNLTDRQLAEEYLYRYGYTRVAEMRGESKSLGPALLLLQKQLSLPETGELDSATLKAMRTPRCGVPDLGRFQTFEGDLKWHHHNITYWIQNYSEDLPRAVIDDAFARAFALWSAVTPLTFTRVYSRDADIVIQFGVAEHGDGYPFDGKDGLLAHAFPPGPGIQGDAHFDDDELWSLGKGVVVPTRFGNADGAACHFPFIFEGRSYSACTTDGRSDGLPWCSTTANYDTDDRFGFCPSERLYTQDGNADGKPCQFPFIFQGQSYSACTTDGRSDGYRWCATTANYDRDKLFGFCPTRADSTVMGGNSAGELCVFPFTFLGKEYSTCTSEGRGDGRLWCATTSNFDSDKKWGFCPDQGYSLFLVAAHEFGHALGLDHSSVPEALMYPMYRFTEGPPLHKDDVNGIRHLYGPRPEPEPRPPTTTTPQPTAPPTVCPTGPPTVHPSERPTAGPTGPPSAGPTGPPTAGPSTATTVPLSPVDDACNVNIFDAIAEIGNQLYLFKDGKYWRFSEGRGSRPQGPFLIADKWPALPRKLDSVFEERLSKKLFFFSGRQVWVYTGASVLGPRRLDKLGLGADVAQVTGALRSGRGKMLLFSGRRLWRFDVKAQMVDPRSASEVDRMFPGVPLDTHDVFQYREKAYFCQDRFYWRVSSRSELNQVDQVGYVTYDILQCPED
modifications: [125I]-Bolton-Hunter label in the solid-phase assays (dot blot, microwells); no label told for SPR and immunohistochemistry
notes: matrix metalloproteinase-9 (gelatinase B), human, recombinant 92-kDa prodomain-containing latent proform; Proenzyme with the prodomain; also called [125I]-proMMP-9; MMP-9 Pro; source: bought: Invitek (human recombinant)
B3: proMMP-2 (72-kDa latent proform of matrix metalloproteinase-2) (enzyme, human, UniProt P08253 30-660, looked up)
chain: APSPIIKFPGDVAPKTDKELAVQYLNTFYGCPKESCNLFVLKDTLKKMQKFFGLPQTGDLDQNTIETMRKPRCGNPDVANYNFFPRKPKWDKNQITYRIIGYTPDLDPETVDDAFARAFQVWSDVTPLRFSRIHDGEADIMINFGRWEHGDGYPFDGKDGLLAHAFAPGTGVGGDSHFDDDELWTLGEGQVVRVKYGNADGEYCKFPFLFNGKEYNSCTDTGRSDGFLWCSTTYNFEKDGKYGFCPHEALFTMGGNAEGQPCKFPFRFQGTSYDSCTTEGRTDGYRWCGTTEDYDRDKKYGFCPETAMSTVGGNSEGAPCVFPFTFLGNKYESCTSAGRSDGKMWCATTANYDDDRKWGFCPDQGYSLFLVAAHEFGHAMGLEHSQDPGALMAPIYTYTKNFRLSQDDIKGIQELYGASPDIDLGTGPTPTLGPVTPEICKQDIVFDGIAQIRGEIFFFKDRFIWRTVTPRDKPMGPLLVATFWPELPEKIDAVYEAPQEEKAVFFAGNEYWIYSASTLERGYPKPLTSLGLPPDVQRVDAAFNWSKNKKTYIFAGDKFWRYNEVKKKMDPGFPKLIADAWNAIPDNLDAVVDLQGGGHSYFFKGAYYLKLENQSLKSVKFGSIKSDWLGC
modifications: [125I]-Bolton-Hunter label in the solid-phase assays (dot blot, microwells); Cy2 label in the tissue release experiment; no label told for SPR and immunohistochemistry
notes: matrix metalloproteinase-2 (gelatinase A), human, recombinant 72-kDa prodomain-containing latent proform; Proenzyme with the prodomain; also called [125I]-proMMP-2; Cy2-proMMP-2; source: bought: Invitek (human recombinant)

Key:
Assay in all cases: radioligand binding; collagens, chains, fragments and peptides (2 μg/well or 200 ng/well) immobilised on polystyrene microtiter wells; 2 ng [125I]-MMP per well, 4°C, 2 h; washed with PBS, 0.05% Tween 20; residual radioactivity in a gamma counter
Details in all cases: both partners purified
[1] = molecular target: T1, (GPP)10, H-Gly-Cys-Pro-(Gly-Pro-Pro)10-Gly-Cys-Pro-Gly-NH2 (C-terminal amide)
T1 construct: printed in three-letter code: H-Gly-Cys-Pro-(Gly-Pro-Pro)10-Gly-Cys-Pro-Gly-NH2; no hydroxyproline; Triple-helical by polarimetry (midpoint of melting 45.8 ± 0.8°C at 5 mg/ml); source: synthetic peptide

[2] = molecular target: T2, α2 chain of collagen type I (α2(I)) (human, UniProt P08123 80-1119)
T2 construct: α2 chain of collagen type I, human, single chain isolated from CI; source: single chain obtained from purified human CI

[3] = molecular target: T3, α1 chain of collagen type I (α1(I)) (human, UniProt P02452 162-1218)
T3 construct: α1 chain of collagen type I, human, single chain isolated from CI; source: single chain obtained from purified human CI

[4] = molecular target: T4, GAP, H-Gly-Ala-Cys-(Gly-Ala-Pro)5-Gly-Phe-Hyp-Gly-Glu-Arg-(Gly-Ala-Pro)5-NH2 (hydroxyproline (Hyp) at 21 (counted from the printed formula; written as P in letters); C-terminal amide)
T4 construct: printed in three-letter code: H-Gly-Ala-Cys-(Gly-Ala-Pro)5-Gly-Phe-Hyp-Gly-Glu-Arg-(Gly-Ala-Pro)5-NH2; Hyp written as P; Nonhelical even at 5°C by polarimetry; also called linear GAP; linear control peptide GAP; source: synthetic peptide
T4 peptide: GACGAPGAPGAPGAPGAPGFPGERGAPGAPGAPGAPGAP

[5] = molecular target: human collagen type VI (CVI) (human, UniProt P12109 20-1028; P12110 21-1019; P12111 26-3177)
Chain of human collagen type VI (CVI) (P12109 20-1028, chain 1 of 3): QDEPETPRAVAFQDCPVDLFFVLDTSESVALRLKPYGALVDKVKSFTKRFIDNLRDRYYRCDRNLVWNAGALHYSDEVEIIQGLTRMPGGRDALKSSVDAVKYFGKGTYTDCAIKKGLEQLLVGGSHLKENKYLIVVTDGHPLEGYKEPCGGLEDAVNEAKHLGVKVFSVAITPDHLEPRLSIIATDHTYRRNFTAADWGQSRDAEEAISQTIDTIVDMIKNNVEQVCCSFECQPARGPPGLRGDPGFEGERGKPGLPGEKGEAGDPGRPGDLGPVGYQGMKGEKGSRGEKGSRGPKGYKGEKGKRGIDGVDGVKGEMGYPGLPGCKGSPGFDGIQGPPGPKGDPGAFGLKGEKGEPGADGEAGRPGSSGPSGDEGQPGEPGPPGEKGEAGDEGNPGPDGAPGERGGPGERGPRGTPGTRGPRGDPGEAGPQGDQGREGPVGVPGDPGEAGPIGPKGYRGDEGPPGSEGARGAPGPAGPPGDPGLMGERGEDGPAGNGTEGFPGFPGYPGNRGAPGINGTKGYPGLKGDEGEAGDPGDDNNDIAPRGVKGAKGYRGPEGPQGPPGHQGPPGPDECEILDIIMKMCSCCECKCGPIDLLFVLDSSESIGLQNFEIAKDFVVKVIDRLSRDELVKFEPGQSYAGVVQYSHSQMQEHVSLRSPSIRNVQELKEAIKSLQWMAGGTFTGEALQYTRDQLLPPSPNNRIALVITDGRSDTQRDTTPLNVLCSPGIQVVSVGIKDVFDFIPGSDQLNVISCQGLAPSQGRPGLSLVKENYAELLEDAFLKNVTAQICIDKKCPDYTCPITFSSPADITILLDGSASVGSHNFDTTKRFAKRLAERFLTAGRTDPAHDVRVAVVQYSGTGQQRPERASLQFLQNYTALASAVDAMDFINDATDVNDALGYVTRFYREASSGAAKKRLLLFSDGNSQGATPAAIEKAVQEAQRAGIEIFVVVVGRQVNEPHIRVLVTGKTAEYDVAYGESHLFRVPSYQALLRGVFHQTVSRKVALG
Chain of human collagen type VI (CVI) (P12110 21-1019, chain 2 of 3): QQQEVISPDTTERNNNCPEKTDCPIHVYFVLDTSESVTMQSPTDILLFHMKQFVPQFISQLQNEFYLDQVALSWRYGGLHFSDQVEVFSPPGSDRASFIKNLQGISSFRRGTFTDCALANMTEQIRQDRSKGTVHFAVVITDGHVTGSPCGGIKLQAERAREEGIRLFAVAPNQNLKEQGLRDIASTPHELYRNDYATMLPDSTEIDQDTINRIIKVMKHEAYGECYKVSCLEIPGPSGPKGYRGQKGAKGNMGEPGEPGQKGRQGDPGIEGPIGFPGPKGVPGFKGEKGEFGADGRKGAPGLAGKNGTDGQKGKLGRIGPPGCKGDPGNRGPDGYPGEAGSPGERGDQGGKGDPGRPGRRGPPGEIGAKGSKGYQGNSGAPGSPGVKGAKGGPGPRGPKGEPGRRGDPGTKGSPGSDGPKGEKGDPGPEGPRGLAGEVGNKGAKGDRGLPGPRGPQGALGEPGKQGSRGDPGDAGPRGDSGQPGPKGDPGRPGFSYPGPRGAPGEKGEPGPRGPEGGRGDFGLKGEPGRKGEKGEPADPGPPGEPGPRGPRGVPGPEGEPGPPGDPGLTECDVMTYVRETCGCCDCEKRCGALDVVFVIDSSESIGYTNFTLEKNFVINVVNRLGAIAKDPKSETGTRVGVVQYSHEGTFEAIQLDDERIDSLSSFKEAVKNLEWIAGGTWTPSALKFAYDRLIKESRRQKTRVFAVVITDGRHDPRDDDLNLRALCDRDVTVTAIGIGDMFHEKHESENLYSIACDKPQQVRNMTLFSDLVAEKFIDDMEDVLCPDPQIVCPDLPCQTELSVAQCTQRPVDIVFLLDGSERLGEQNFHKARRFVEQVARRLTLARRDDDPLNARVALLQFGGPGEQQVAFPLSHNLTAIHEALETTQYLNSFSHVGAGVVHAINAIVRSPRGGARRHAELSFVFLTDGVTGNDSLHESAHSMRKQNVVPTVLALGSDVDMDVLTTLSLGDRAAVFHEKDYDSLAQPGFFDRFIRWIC
Chain of human collagen type VI (CVI) (P12111 26-3177, chain 3 of 3): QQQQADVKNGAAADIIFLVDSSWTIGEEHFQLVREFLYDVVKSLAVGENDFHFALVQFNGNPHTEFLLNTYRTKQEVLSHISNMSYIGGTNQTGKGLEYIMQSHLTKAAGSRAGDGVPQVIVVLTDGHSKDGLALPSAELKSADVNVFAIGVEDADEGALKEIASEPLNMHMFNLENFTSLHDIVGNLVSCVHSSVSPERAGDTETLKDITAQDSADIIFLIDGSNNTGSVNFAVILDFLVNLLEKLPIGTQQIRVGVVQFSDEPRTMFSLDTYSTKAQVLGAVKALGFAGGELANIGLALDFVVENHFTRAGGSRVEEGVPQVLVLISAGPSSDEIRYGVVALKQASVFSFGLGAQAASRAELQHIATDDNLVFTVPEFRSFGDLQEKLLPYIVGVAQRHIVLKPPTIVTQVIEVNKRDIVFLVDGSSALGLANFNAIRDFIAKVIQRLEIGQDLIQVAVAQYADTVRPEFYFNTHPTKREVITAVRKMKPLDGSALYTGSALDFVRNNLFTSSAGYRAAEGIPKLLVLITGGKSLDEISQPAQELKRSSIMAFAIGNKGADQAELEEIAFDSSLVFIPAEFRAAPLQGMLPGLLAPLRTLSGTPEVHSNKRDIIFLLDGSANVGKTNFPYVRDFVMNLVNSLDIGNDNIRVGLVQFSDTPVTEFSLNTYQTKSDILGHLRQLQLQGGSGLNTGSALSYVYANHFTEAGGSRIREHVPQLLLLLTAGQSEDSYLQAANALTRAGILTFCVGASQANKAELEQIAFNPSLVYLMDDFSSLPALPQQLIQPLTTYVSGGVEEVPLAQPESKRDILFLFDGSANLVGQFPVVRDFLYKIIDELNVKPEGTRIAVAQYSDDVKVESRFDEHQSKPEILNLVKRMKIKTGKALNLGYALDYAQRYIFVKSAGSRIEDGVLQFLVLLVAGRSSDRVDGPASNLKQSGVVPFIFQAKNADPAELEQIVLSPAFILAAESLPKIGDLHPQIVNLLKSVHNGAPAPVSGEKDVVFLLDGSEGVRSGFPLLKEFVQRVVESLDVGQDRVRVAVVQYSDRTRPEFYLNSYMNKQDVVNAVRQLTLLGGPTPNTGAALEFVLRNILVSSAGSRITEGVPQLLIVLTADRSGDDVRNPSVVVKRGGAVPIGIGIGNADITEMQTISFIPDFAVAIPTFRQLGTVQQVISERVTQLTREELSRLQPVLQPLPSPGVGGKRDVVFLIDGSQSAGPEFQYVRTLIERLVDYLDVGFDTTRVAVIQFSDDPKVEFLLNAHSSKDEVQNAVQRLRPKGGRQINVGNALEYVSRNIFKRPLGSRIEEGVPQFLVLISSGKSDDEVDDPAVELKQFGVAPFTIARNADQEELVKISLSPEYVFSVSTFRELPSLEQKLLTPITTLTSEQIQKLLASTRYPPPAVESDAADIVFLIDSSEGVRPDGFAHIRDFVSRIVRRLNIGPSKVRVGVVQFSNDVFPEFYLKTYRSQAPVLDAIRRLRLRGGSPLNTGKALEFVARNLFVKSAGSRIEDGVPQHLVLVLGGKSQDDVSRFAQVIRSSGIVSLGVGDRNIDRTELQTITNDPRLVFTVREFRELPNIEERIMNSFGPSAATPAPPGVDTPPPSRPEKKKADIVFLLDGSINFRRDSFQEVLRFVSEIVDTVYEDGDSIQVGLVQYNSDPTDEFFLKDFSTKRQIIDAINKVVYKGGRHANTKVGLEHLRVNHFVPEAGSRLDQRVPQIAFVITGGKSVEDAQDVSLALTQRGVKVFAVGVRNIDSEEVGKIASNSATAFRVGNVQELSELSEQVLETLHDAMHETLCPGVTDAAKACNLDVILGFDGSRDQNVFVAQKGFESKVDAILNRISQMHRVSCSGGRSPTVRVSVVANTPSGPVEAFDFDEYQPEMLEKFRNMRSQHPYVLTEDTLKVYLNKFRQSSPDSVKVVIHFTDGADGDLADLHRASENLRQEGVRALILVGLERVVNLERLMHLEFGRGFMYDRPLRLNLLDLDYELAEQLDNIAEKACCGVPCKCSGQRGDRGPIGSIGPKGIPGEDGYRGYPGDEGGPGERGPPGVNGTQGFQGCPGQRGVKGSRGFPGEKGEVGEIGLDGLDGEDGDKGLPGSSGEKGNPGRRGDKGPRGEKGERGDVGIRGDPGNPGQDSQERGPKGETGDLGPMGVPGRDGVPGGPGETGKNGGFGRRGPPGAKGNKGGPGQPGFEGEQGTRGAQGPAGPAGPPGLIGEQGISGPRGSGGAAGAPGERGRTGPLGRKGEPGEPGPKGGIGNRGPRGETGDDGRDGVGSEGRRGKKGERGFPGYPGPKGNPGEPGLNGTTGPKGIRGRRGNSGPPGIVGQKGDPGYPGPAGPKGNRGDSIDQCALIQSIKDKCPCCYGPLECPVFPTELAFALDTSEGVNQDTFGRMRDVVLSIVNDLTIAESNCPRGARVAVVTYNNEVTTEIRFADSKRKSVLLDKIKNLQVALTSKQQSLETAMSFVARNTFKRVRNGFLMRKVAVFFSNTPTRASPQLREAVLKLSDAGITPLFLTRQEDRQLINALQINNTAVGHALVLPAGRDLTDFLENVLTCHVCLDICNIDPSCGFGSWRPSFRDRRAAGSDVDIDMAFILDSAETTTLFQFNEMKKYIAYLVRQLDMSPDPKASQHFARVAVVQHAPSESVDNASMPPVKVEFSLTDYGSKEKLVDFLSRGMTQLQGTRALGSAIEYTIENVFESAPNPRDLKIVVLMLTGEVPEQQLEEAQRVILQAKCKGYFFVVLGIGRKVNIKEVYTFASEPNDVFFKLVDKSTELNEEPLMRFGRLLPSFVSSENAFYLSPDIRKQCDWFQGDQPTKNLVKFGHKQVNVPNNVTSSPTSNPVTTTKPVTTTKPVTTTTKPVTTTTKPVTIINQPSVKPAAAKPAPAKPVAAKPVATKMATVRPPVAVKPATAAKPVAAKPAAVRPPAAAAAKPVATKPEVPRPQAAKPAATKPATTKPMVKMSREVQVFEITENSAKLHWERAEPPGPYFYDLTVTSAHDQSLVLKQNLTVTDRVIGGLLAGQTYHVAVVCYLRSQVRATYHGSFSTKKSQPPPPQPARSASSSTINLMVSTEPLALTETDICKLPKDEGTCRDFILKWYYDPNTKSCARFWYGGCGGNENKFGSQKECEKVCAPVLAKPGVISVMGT

[6] = molecular target: T5, (GPO)10, H-Gly-Cys-Hyp-(Gly-Pro-Hyp)10-Gly-Cys-Hyp-Gly-NH2 (hydroxyproline (Hyp) at 3, 6, 9, 12, 15, 18, 21, 24, 27, 30, 33 and 36 (counted from the printed formula; written as P in letters); C-terminal amide)
T5 construct: printed in three-letter code: H-Gly-Cys-Hyp-(Gly-Pro-Hyp)10-Gly-Cys-Hyp-Gly-NH2; Hyp written as P; Triple-helical by polarimetry (midpoint of melting 82.3 ± 1.4°C at 5 mg/ml); also called Gly-Pro-Hyp (GPO)10; source: synthetic peptide

Binder | bound [125I]-MMP (% of the radiolabeled MMP added) [1] [%] | bound [125I]-MMP (% of the radiolabeled MMP added) [2] [%] | bound [125I]-MMP (% of the radiolabeled MMP added) [3] [%] | bound [125I]-MMP (% of the radiolabeled MMP added) [4] [%] | bound [125I]-MMP (% of the radiolabeled MMP added) [5] [%] | bound [125I]-MMP (% of the radiolabeled MMP added) [6] [%]
B1 | 0.9 | 2.6 | 4.7 | 0.7 | 2.4 | 
B2 | 4.9 | 21.8 | 37.6 | 1.3 | 12.3 | 36.1
B3 | 3.6 | 30.2 | 36 | 1.7 | 14.1 | 13
